Legend:
[1] = target: T1, Ras9-WT peptide/HLA-A0201 complex on peptide-pulsed T2 cells (human); assay: flow cytometry, indirect staining of T2 cells pulsed with 50 ug/ml peptide
T1 construct: also called T2-0141WT

[2] = target: T2, Ras9-G12V peptide/HLA-A0201 complex on peptide-pulsed T2 cells (human); assay: as above
T2 construct: also called K-Ras9 G12V/HLA A0201; T2-014A1mut

[3] = target: Ras10-G12D peptide/HLA-A0201 complex on peptide-pulsed T2 cells (human); assay: flow cytometry, indirect staining of peptide-pulsed T2 cells (peptide 50 µg/ml)
[4] = target: T3, Ras10-G12C peptide/HLA-A0201 complex on peptide-pulsed T2 cells (human); assay: as above
T3 construct: also called Ras-G12C

[5] = target: T4, biotinylated Ras10-G12V/HLA-A0201 complex monomer (human, chain 1: C-terminal BirA substrate peptide (letters not given), enzymatically biotinylated by BirA); assay: BLI (ForteBio Octet QK), biotinylated pMHC on streptavidin sensor, mAb at 10 µg/mL, 1:1 model partial fit
T4 construct: also called Ras G12V/HLA-A0201; Ras-G12V/HLA A0201 complex monomer; not shown: the BirA substrate peptide (BSP) at the C-terminus of the heavy chain

[6] = target: T5, Ras10-G12V peptide with alanine substitution at position 12/HLA-A0201 complex on peptide-pulsed T2 cells (human); assay: flow cytometry of T2 cells pulsed with peptide
T5 construct: Position 12 counts on the Ras protein; also called peptide containing an alanine substitution at position 12

[7] = target: RAS10-G10A peptide/HLA-A0201 complex on peptide-pulsed T2 cells; assay: flow cytometry of T2 cells pulsed with peptide
[8] = target: T6, Ras10-WT peptide/HLA-A0201 complex on peptide-pulsed T2 cells (human); assay: flow cytometry of T2 cells pulsed with peptide
T6 construct: also called Ras WT; T2-0142WT

[9] = target: T7, HLA-A0201 on T2 cells without added peptide (human); assay: flow cytometry of T2 cells without peptide
T7 construct: Used as the negative target (T2 cells alone) and as the HLA-A0201 partner of the free peptides in the T2 stabilization assay; also called T2 alone; empty T2 cells

[10] = target: T8, biotinylated Ras10-WT/HLA-A0201 complex monomer (human, chain 1: C-terminal BirA substrate peptide (letters not given), enzymatically biotinylated by BirA); assay: BLI (ForteBio Octet QK), biotinylated pMHC on streptavidin sensor
T8 construct: also called Ras wt/HLA-A0201; not shown: the BirA substrate peptide (BSP) at the C-terminus of the heavy chain

[11] = target: T1, Ras9-WT peptide/HLA-A0201 complex on …; assay: flow cytometry, scFv phage on peptide-loaded T2 cells, anti-M13 detection
[12] = target: T6, Ras10-WT peptide/HLA-A0201 complex on …; assay: as above
[13] = target: T7, HLA-A0201 on T2 cells without added …; assay: flow cytometry, scFv phage on T2 cells, anti-M13 detection
[14] = target: T7, HLA-A0201 on T2 cells without added …; assay: T2 stabilization control, flow cytometry: BB7 staining of T2 cells pulsed with the peptide
Procedure: The binding of the mAb to the peptide/HLA-A2 complex was measured by indirect (A) or indirect staining with mAbs conjugated to APC (B).

[15] = target: T8, biotinylated Ras10-WT/HLA-A0201 complex …; assay: BLI (ForteBio Octet QK), biotinylated pMHC on streptavidin sensor, mAb at 10 µg/mL, 1:1 model partial fit
[16] = target: RAS10-G13A peptide/HLA-A0201 complex on peptide-pulsed T2 cells; assay: flow cytometry of T2 cells pulsed with peptide
[17] = target: RAS10-V9A peptide/HLA-A0201 complex on peptide-pulsed T2 cells; assay: flow cytometry of T2 cells pulsed with peptide
[18] = target: T7, HLA-A0201 on T2 cells without added …; assay: T2 stabilization control, flow cytometry: BB7 staining of T2 cells pulsed with the peptide; remark: listed apart in the source
Procedure: The binding of the mAb to the peptide/HLA-A2 complex was measured by direct staining with mAbs conjugated to APC or by indirect staining with mAbs, followed by secondary goat anti-human IgG1/FITC mAb. The binding of the mAbs was measured by flow cytometry on a FACScalibur (Becton Dickenson) and analyzed with FlowJo 9.6.3 software. […] (F) Antibody by the above peptides to T2 cells was measured.

B1: Ras mAb #4, full-length human IgG1 (antibody, V domains shown)
VH: EVQLVQSGAEVKKPGASVKVSCKASGYTFTAYYLHWLRQAPGQGLEWMGWMNTNNGATRYAQKFQDRVTMTRDTSINTAYMEMSGLSSDDTAMYYCARGDISQDFADVWGQGTLVTVSS
VL: NFMLTQPHSVSESPGKTVTISCTGSSGSIASNYVQWYQQRPGSAPTILIYEDNKRPSGVPDRFSGSIDSSSNSASLTISGLKTGDEADYYCQSYDDINHWVFGGGTKLTVLG
notes: also called clone #4; Ras antibody #4
[1]
  binding result: no binding (tested: 10 ug/ml)
[2]
  binding result: no binding (tested: 10 ug/ml)
[3]
  binding result: no binding
[4]
  binding result: no binding
[5]
  Kd: 9.19 nM
  koff: 0.00363 s⁻¹
  kon: 396000 M⁻¹ s⁻¹
[6]
  binding result: no binding (tested: 10 ug/ml)
[7]
  binding result: no binding (tested: 10 ug/ml)
[8]
  binding result: no binding (tested: 10 ug/ml)
[9]
  binding result: no binding (tested: 10 ug/ml)
[10]
  binding result: no binding (tested: 10 µg/mL)

B2: scFv phage clone #2 (scFv)
scFv: QSVLTQPPSVSGAPGQRVTISCTGSSSNIGAGYDVHWYQQLPGTAPKLLIYGNSNRPSGVPDRFSGSKSGTSASLAITGLQAEDEADYYCQSYDSSLSGSVFGTGTKVTVLGSRGGGGSGGGGSGGGGSLEMAVQLVQSGAEVKKPGSSVKVSCKASGGTFSSYTINWVRQAPGQGLEWMGGFIPISGTVNYAQKFQGRVTITADESTSTAYMELSSLRSEDTAVYYCARPLDWTEDIWGQGTLVTVSS
notes: also called K-Ras G12V/HLA A0201 specific phage clone
[11]
  binding result: no binding
[12]
  binding result: no binding
[13]
  binding result: no binding

## LVVVGAGGV (Free synthetic peptide) [RAS9-WT peptide]
[14]
  binding result: binds

B3: Ras mAb #2, full-length human IgG1 (antibody, V domains shown)
VH: QVQLVQSGAEVKKPGSSVKVSCKASGGTFSSYTINWVRQAPGQGLEWMGGFIPISGTVNYAQKFQGRVTITADESTSTAYMELSSLRSEDTAVYYCARPLDWTEDIWGQGTLVTVSS
VL: QSVLTQPPSVSGAPGQRVTISCTGSSSNIGAGYDVHWYQQLPGTAPKLLIYGNSNRPSGVPDRFSGSKSGTSASLAITGLQAEDEADYYCQSYDSSLSGSVFGTGTKVTVLG
notes: also called clone #2; Ras antibody #2
[1]
  binding result: no binding (tested: 10 ug/ml)
[3]
  binding result: no binding
[5]
  Kd: 8.88 nM
[8]
  binding result: no binding (tested: 10 ug/ml)
[9]
  binding result: no binding (tested: 10 ug/ml)
[10]
  binding result: no binding (tested: 10 µg/mL)

B4: Ras mAb #7, full-length human IgG1 (antibody, V domains shown)
VH: EVQLVESGAEVKEPGSSVKVSCKASGGTFSSYGISWIRQAPGQGLEWMGEIIPIFGTPNYAQKFQGRVTITADESTSTAYVELSSLRSDDTAVYYCARSYYGYFDGWGQGTLVTVSS
VL: DIQMTQSPSSLSASVGDRVTITCQASQDISNYLNWYQQKPGKAPKLLIYDASNLETGVPSRFSGSGSGTDFTFTISSLQPDDFATYYCQQYKSYPLTFGGGTKVEIKR
notes: also called clone #7; Ras antibody #7
[1]
  binding result: no binding (tested: 10 ug/ml)
[2]
  binding result: no binding (tested: 10 ug/ml)
[3]
  binding result: no binding
[4]
  binding result: no binding
[5]
  Kd: 8.77 nM
  koff: 0.000746 s⁻¹
  kon: 85000 M⁻¹ s⁻¹
[15]
  Kd: 65.1 nM
  koff: 0.00153 s⁻¹
  kon: 23400 M⁻¹ s⁻¹
[16]
  binding result: binds
[17]
  binding result: binds
[9]
  binding result: no binding (tested: 10 ug/ml)

B5: RAS10-G12S peptide (peptide)
peptide: KLVVVGASGV
notes: peptide of the complex m14; also called R10-G12S
[18]
  binding result: binds

## KLVVVGGVGV (Position 11 counts on the Ras protein) [Ras10-A11G peptide]
[18]
  binding result: binds

From patent US20180134804A1 (Memorial Sloan Kettering, published 2018)
